Results published in patent US20200277374A1 (Alector, published 2020).
Values belong to the molecule of their own block, whether it stands above or below them.

Key:
[1] = target: human Siglec-7 expressed on human cells (primary monocytes, dendritic cells, macrophages, NK cells, microglia, U937 cells, human cells of humanized mice) (human) (UniProt Q9Y286); assay: FACS, human primary dendritic cells; isotype control (background)
[2] = target: human Siglec-7 expressed on human cells (primary monocytes, dendritic cells, macrophages, NK cells, microglia, U937 cells, human cells of humanized mice) (human) (UniProt Q9Y286); assay: FACS, human primary monocytes; isotype control (background)
[3] = target: human Siglec-7 expressed on human cells (primary monocytes, dendritic cells, macrophages, NK cells, microglia, U937 cells, human cells of humanized mice) (human) (UniProt Q9Y286); assay: cell-based or functional assay
[4] = target: human Siglec-7 expressed on human cells (primary monocytes, dendritic cells, macrophages, NK cells, microglia, U937 cells, human cells of humanized mice) (human) (UniProt Q9Y286); assay: FACS, human primary macrophages; isotype control (background)
[5] = target: T1, human Siglec-7 expressed on human cells (primary monocytes, dendritic cells, macrophages, NK cells, … (human, UniProt Q9Y286 19-467)); assay: cell-based or functional assay
T1 sequence (Q9Y286 19-467): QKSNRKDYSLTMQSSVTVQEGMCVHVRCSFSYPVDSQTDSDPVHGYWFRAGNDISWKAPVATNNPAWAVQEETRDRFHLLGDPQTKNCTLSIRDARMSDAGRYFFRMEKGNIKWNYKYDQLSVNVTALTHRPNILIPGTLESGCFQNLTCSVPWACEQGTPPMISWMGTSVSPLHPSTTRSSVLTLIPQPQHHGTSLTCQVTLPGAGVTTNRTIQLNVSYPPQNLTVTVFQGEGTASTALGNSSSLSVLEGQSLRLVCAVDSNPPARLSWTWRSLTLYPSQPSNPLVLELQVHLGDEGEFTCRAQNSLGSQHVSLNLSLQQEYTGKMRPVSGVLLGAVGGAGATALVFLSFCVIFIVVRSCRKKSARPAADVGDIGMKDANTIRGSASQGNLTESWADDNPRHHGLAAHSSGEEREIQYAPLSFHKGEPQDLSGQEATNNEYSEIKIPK

[6] = target: T1, human Siglec-7 expressed on human cells …; assay: cell-based or functional assay; remark: listed apart in the source
[7] = target: T2, Siglec-7-Fc (plate immobilized) (human, UniProt Q9Y286 19-357, limits assumed); assay: RBC solid adhesion assay, plate-coated Siglec-7-Fc, antibody 0.5 or 1.0 ug/ml; % of RBC binding without antibody
T2 construct: also called Siglec-7-Fc protein; immobilized Siglec-7; not shown: Fc part
T2 sequence (Q9Y286 19-357 limits assumed): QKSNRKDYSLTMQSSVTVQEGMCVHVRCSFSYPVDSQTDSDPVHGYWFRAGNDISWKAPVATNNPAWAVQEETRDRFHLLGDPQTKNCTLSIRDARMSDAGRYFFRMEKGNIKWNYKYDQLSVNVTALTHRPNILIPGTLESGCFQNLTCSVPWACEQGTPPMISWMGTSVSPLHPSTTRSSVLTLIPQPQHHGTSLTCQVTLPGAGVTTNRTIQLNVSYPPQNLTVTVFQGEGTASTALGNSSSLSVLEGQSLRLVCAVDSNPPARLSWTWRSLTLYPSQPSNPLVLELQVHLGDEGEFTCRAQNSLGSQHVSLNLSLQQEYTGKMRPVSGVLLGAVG
Protocol: To determine which antibodies compete with ligand binding to Siglec-7, a red blood cell (RBC) solid adhesion assay was carried out in accordance with standard protocols (Kelm et al., Current Biology, 1994). Red blood cells are highly decorated with glycoproteins containing sialic acids: therefore, the ability of an antibody to block RBC binding to immobilized Siglec-7 can be used to determine ligand interference. Briefly, 5 μg/ml Siglec-7-Fc was coated overnight at RT in 96 well Immunolon plates, then washed with PBS, blocked for one hour with binding buffer (PBS containing %0.25 BSA 1 mM CaCl₂), Siglec-7 antibodies (0.5 μg/ml or 1.0 μg/ml) were bound for one hour at RT with gentle rocking. After removal of unbound antibody, red blood cells were added to each well at a concentration of 3.0×10⁶ cells per ml and incubated at RT for one hour. Unbound RBCs were then carefully washed off 3× with PBS, and water was added to each well for hypotonic lysis of bound RBCs. The plate was transferred to −80° C. for 10 minutes, followed by 37° C. for 15 minutes. Bound RBCs were detected by peroxidase activity, followed by 2N sulfuric acid to stop the reaction. Signal was detected at […]. Data was calculated as a percent of RBC binding to plate bound Siglec-7-Fc in the absence of antibody.

[8] = target: T1, human Siglec-7 expressed on human cells …; assay: FACS, human primary macrophages, 10 ug/ml mAb
Protocol: (§1) Initial characterization of Siglec-7 antibodies involved determining their ability to bind Siglec-7 expressed on human primary monocytes, human primary macrophages, human primary dendritic cells, human primary neutrophils, and human primary natural killer (NK) cells. Cells were harvested, plated at 10⁶/ml in a 96 well plate, and incubated in 100 ul PBS containing 2% FBS, 2 mM EDTA and 10 μg/ml Mab and Fc blocking reagent for 1 hour in ice. Cells were washed twice and incubated in 100 ul PBS containing 2% FBS, 2 mM EDTA and 5 ug/ml PE-conjugated secondary antibody for 30 minutes on ice. Cells were washed twice in cold PBS and analyze by flow cytometry on a BD FACS Canto. Data analysis and calculation of MFI values was performed with FlowJo (TreeStar) software version 10.0.7.
(§2) Percent positive binding and mean fluorescent intensity (MFI) values for cell types bound by Siglec-7 antibodies are listed in Table 4A. Binding is compared to an isotype control. The antibodies bind to human primary monocytes, human primary dendritic cells, and human primary macrophages. In Table 4A, “Buffer” refers to cells that were treated only with the PBS buffer described supra; “Secondary Ab” refers to cells that were treated only with the PE-conjugated secondary antibody; “mIgG1,” “mIgG2a,” and “mIgG2b” refer to isotype control antibodies; and “RDS7” refers to commerically available anti-Siglec-7 antibody Mab1138 (R&D Systems; Cat. No. MAB 1138).

[9] = target: T3, Histidine-tagged human Siglec-7 (NovoProtein) (human, UniProt Q9Y286 19-357, limits assumed); assay: SPR (BiaCore T200, 25 C), antibody captured on anti-mouse IgG, Siglec-7-His 100 nM, single-concentration kinetics
T3 construct: Bought protein; also called purified Siglec-7-his tagged protein; not shown: histidine tag
T3 sequence (Q9Y286 19-357 limits assumed): as above
Protocol: SPR data was collected at a rate of 10 Hz at 25′ C on a BiaCore T200 instrument. Data analysis was performed using BiaCore T200 Evaluation Software, version 2.0. HBS-EP+ (100 mM HEPES, 1.5 M NaCl, 30 mM EDTA, 0.5% v/v Surfactant P20, pH 7.4) was used as running buffer and for preparing reagents.
Mouse-derived antibodies (25 nM) against Siglec-7 were captured (60 s contact time, 30 μL/min flow rate, 0 s stabilization time) on a CM5 sensor chip (GE Healthcare) immobilized with anti-mouse IgG. Histidine-tagged human Siglec-7 (NovoProtein) was then flowed over the captured anti-Siglec-7 surface (120 s contact time, 30 μL/min flow rate, 300 s dissociation time). Concentration of antigen ranged from 5 nM to 100 nM, depending on information obtained from an initial screen. Duplicate single-concentration trials were performed and bracketed by a blank (0 nM antigen) sample. The chip surface was regenerated in between cycles using 10 mM glycine-HCl, pH1.7 (60 s contact time, 30 μL/min flow rate, 60 s stabilization time). The resulting SPR signal was obtained as the difference in response from measurements performed on a blank flow cell.
Affinity constants (KD) were calculated from the ratio kd/kₐ. For one antibody (clone 1E8), we validated the single-concentration analysis with a multiple-concentration approach (five concentrations of antigen used, plus one blank).

[10] = target: T1, human Siglec-7 expressed on human cells …; assay: FACS, human primary monocytes, 10 ug/ml mAb
Protocol: as §1, §2

[11] = target: T1, human Siglec-7 expressed on human cells …; assay: FACS, human primary dendritic cells, 10 ug/ml mAb
Protocol: as §1, §2

Sequence of human Siglec-7 expressed on human cells (primary monocytes, dendritic cells, macrophages, NK cells, microglia, U937 cells, human cells of humanized mice) (human) (Q9Y286 19-467): as the sequence (Q9Y286 19-467) above

B1: anti-Siglec-7 antibody 4D7 (antibody, V domains shown)
VH: QVQLQQSGAELVKPGASVKLSCKTSGYTFTNYWINWVKQRPGQGLEWIGNIYSGSSRTNYNEKFKSKATLTVDTSSSTAYMQLSSLTSDDSAVYYCAREGLRAMDYWGQGTSVTVSS
VL: NZMTQFQKFMSTSVGDRVSLTCKASQKVGTNVAGFQQKPGHSPKAGIYSASTRHRGVQDRFTARGLGSDFILPITTZQLEDLAEYZCHQGNSVQYTFGGGTKLEIK
notes: Variable domains assembled from FR and CDR entries
Percent Siglec-7 Surface Expression, DCs [5]: 73.3% | Percent Siglec-7 Surface Expression, Monocytes [5]: 33.9% | Percent Siglec-7 Surface Expression, U937 cells [5]: 84.7% | Percent Siglec-7 Surface Expression, Macrophages [6]: 24.1% | Percent Siglec-7 Surface Expression, Microglia [6]: 44.3% | Percent Siglec-7 Surface Expression, NK cells [6]: 87.6% | Percent RBC Binding to Siglec-7 [7]: 96.5% | % Positive [8]: 99.4% | MFI [8]: 4260 | Kd [9]: 2.9 nM | % Positive [10]: 90.5% | MFI [10]: 262 | % Positive [11]: 26.1% | MFI [11]: 250

B2: anti-Siglec-7 antibody 1A12 (antibody, V domains shown)
VH: QVQLQQSGSELRSPGSSVKLSCKDFDSEVFPITYMNWVRQKPGHGFEWIGDILPSIGRTMYGEKFEDKATLDADTVSNTAYLELNSLTSEDSAIYYCARSEGYLLAYWGQGTLVTVSA
VL: DVZMTQTPLSLPVSLGDQASISCRSSQSLVHSTGNTYLHWYLQKPGQSPKLLIYKVSNRFSGVPDRFSGSGAGTDFTLKISRVEAEDLGVYFCSQNTHVPYTFGGGTKLEIK
notes: also called 1Al2
Percent Siglec-7 Surface Expression, DCs [5]: 100% | Percent Siglec-7 Surface Expression, Monocytes [5]: 39.9% | Percent Siglec-7 Surface Expression, U937 cells [5]: 87.3% | Percent Siglec-7 Surface Expression, Macrophages [6]: 13.4% | Percent Siglec-7 Surface Expression, Microglia [6]: 28.6% | Percent Siglec-7 Surface Expression, NK cells [6]: 136% | Percent RBC Binding to Siglec-7 [7]: 16.5% | % Positive [8]: 99.4% | MFI [8]: 15800 | Kd [9]: 0.6 nM | % Positive [10]: 99.3% | MFI [10]: 505 | % Positive [11]: 99.7% | MFI [11]: 6090

Next, values leading:

% Positive [1]: 4.5% | MFI [1]: 134 | % Positive [2]: 14% | MFI [2]: 141 | Percent Siglec-7 Surface Expression, DCs [3]: 100% | Percent Siglec-7 Surface Expression, Macrophages [3]: 100% | Percent Siglec-7 Surface Expression, Microglia [3]: 84.2% | Percent Siglec-7 Surface Expression, Monocytes [3]: 99.4% | Percent Siglec-7 Surface Expression, NK cells [3]: 101% | Percent Siglec-7 Surface Expression, U937 cells [3]: 99.8% | % Positive [4]: 35.8% | MFI [4]: 648
Molecule: mIgG2a isotype control antibody

Percent Siglec-7 Surface Expression, DCs [5]: 19.3% | Percent Siglec-7 Surface Expression, Monocytes [5]: 8.1% | Percent Siglec-7 Surface Expression, U937 cells [5]: 75.2% | Percent Siglec-7 Surface Expression, Macrophages [6]: 5.7% | Percent Siglec-7 Surface Expression, Microglia [6]: 11.5% | Percent Siglec-7 Surface Expression, NK cells [6]: 50.7% | Percent RBC Binding to Siglec-7 [7]: 89.3% | % Positive [8]: 99.8% | MFI [8]: 2380 | Kd [9]: 9.5 nM | % Positive [10]: 93.3% | MFI [10]: 278 | % Positive [11]: 98.4% | MFI [11]: 845
B3: anti-Siglec-7 antibody 7E11 (antibody, V domains shown)
VH: QVQLKQSGPVLVAPSQSLSITCTVSGFSLSNYGVHWVRQFPGKGLEWLGVIWAGGITNYNSVLMSRLSISKDNSKSQVFLKMNSLQTDDTAMYYCAKQGGTSFSYWGQGTLVTVSA
VL: DIQMTQSPASQSASLGESVTITCLASQTIGTWLAWYQQKPGKSPQLLIYAATSLADGVPSRFSGSGSGTKFSFKISSLQAEDFVSYYCQQLYSTPYTFGGGTKLEIK
notes: as for B1
